We go through two substances from paper PMC9774250.

Series [1] has as its system apo-YgaV (His-tagged) (Escherichia coli (WT genomic DNA; BW25113?)). The experiment in a line: EMSA. As to conditions: EMSA: 50 nM probe, 25 mM Tris-HCl pH 8.0, 100 mM NaCl, 2 mM MgCl2, 6% glycerol, 50 mg/mL heparin (so in the source), room temperature 30 min, footprint: 100 nM DNA …. (In general: Mobility shift assays separate free from complexed probe on a gel.)
Series [2] has as its system heme-YgaV (His-tagged, hemin-reconstituted) (Escherichia coli (WT genomic DNA; BW25113?)). The experiment in a line: EMSA. Conditions: heme; 10 mM Na2S (oxidized); EMSA: 50 nM probe, 25 mM Tris-HCl pH 8.0, 100 mM NaCl, 2 mM MgCl2, 6% glycerol, 50 mg/mL heparin (so in the source), room temperature 30 min; footprint: 100 nM DNA ….

For the substance katG promoter, the binding signal in series [1] (1 mM DTT (reduced), scale: fold higher YgaV concentration for shift than ygaV promoter) worked out at 20.

As to ygaVP promoter, the binding signal (fold higher EC50 than DTT-reduced) in series [1] (10 mM Na2S (oxidized)) and in series [2] was 5 throughout.
